Patent US20200283773, “NUCLEOLIN-TARGETING APTAMERS AND METHODS OF USING THE SAME” (Duke University, published 2020)

Legend:
Conditions in all cases: label: 32P end label
[1] = target: T1, nucleolin (NCL), recombinant (Homo sapiens, UniProt P19338 SEQ:1-710); assay: filter; similar affinity to parent Ev3
[2] = target: T1, nucleolin (NCL), recombinant; assay: filter; Ev2 described as non-binding aptamer control
[3] = target: T1, nucleolin (NCL), recombinant; assay: filter; among truncates with best affinity; values only in figure
[4] = target: T1, nucleolin (NCL), recombinant; assay: filter; 20 mM Hepes, 150 mM NaCl, 2 mM CaCl2, 0.01% BSA, 37 C; Bmax 33.6%, R2 0.6520
Description: (§1) Aptamers were end-labeled with ³²P. Nucleolin protein was serially diluted in 20 mM Hepes, 150 mM NaCl, 2 mM CaCl₂ and 0.01% bovine serum albumin and incubated with a trace amount of the ³²P-labeled RNA pools. After incubation at 37° C., unbound RNA was captured on a nylon membrane and RNA-nucleolin complexes captured on a nitrocellulose membrane. The fraction of protein-bound RNA was determined via phosphorimaging of the nitrocellulose and nylon membranes.

[5] = target: T1, nucleolin (NCL), recombinant; assay: filter; 20 mM Hepes, 150 mM NaCl, 2 mM CaCl2, 0.01% BSA, 37 C; Bmax 23.08%
Description: as §1

[6] = target: T1, nucleolin (NCL), recombinant; assay: filter; 20 mM Hepes, 150 mM NaCl, 2 mM CaCl2, 0.01% BSA, 37 C; Bmax 53.6%
Description: as §1

[7] = target: T1, nucleolin (NCL), recombinant; assay: filter; 20 mM Hepes, 150 mM NaCl, 2 mM CaCl2, 0.01% BSA, 37 C; Bmax 25.2%
Description: as §1

[8] = target: T1, nucleolin (NCL), recombinant; assay: filter; 20 mM Hepes, 150 mM NaCl, 2 mM CaCl2, 0.01% BSA, 37 C; Bmax 32.76%
Description: as §1

T1 sequence (P19338 whole entry): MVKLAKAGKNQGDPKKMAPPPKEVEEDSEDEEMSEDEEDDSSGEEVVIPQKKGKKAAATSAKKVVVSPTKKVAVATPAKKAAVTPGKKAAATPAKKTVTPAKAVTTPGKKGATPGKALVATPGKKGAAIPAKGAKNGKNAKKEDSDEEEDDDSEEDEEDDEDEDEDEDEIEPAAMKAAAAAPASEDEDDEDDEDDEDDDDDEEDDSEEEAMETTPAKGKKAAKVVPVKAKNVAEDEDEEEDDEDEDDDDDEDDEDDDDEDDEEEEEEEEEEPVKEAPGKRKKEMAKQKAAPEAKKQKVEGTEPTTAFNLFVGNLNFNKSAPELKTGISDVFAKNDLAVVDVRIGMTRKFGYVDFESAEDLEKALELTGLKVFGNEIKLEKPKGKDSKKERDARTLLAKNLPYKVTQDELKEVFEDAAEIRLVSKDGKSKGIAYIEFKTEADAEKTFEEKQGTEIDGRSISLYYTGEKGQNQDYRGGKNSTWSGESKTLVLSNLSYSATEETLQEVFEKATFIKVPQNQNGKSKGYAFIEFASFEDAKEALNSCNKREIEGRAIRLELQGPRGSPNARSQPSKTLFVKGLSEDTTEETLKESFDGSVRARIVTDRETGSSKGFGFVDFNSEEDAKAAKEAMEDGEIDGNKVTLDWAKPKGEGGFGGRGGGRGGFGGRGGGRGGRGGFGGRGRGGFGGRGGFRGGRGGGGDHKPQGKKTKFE

GGGAUGGGCACGGUCCAGCGCUAACUGUACCUGCUGUGCCACCC (ssRNA, 2'-F pyrimidines) [Ev3.min21]
binding result [1]: binds

GGGAUGGGCACGGUCCAGCGCUAACUGUACCUGCUGUGCCACCCACCGC (ssRNA, 2'-F pyrimidines) [Ev2]
binding result [2]: no binding

B1: Ev5 (ssRNA)
RNA: GGAAGAGGGAUGGGCACGGUCCAGCGCUAACUGUACCUGCUGUGCCACCCACC
modifications: 2'-F pyrimidines
binding result ([3]; DL650 for flow): binds

B2: FAM-F (ssRNA)
RNA: GGGAGAGAGGAAGAGGGAUGGGACCACGCGCCAACGUGUCAGCUACACGCCGUGUUCCCCGGCAUAACCCAGAGGUCGAUAGUACUGGAUCCCCCC
modifications: 2'-F pyrimidines
Kd [4]: 370 pM

B3: Ev3.min22 (ssRNA)
RNA: GGGAGGAAGAGGGAUGGGCACGGUCCAGCGCUAACUGUACCUGCUGUGCCACCC
modifications: 2'-F pyrimidines
binding result [1]: binds

B4: Ev3 (ssRNA)
RNA: GGGAGAGAGGAAGAGGGAUGGGCACGGUCCAGCGCUAACUGUACCUGCUGUGCCACCCACCG
modifications: 2'-F pyrimidines
binding result ([3]; DL650 for flow): binds

B5: FAM-E (ssRNA)
RNA: GGGAGAGAGGAAGAGGGAUGGGCACGGUCCAGCGCUAACUGUACCUGCUGUGCCACCCACCGCAUAACCCAGAGGUCGAUAGUACUGGAUCCCCCC
modifications: 2'-F pyrimidines
Kd [5]: 1690 pM

B6: FAM-D (ssRNA)
RNA: GGGAGAGAGGAAGAGGGAUGGGCACAUGGUACGCCCAAAGCGAGGCCCGCUGCGUAGUGCCAUAACCCAGAGGUCGAUAGUACUGGAUCCCCCC
modifications: 2'-F pyrimidines
Kd [6]: 586 pM

B7: Dv2 (ssRNA)
RNA: GGGAGAGAGGAAGAGGGAUGGGCACAUGGUACGCCCAAAGCGAGGCCCGCUGCGUAGUGCC
modifications: 2'-F pyrimidines
binding result [3]: binds

B8: FAM-B (ssRNA)
RNA: GGGAGAGAGGAAGAGGGAUGGGAGCCAGCUUUGCAUACCACGUGCAAUUCACUCCACCCGUCACAUAACCCAGAGGUCGAUAGUACUGGAUCCCCCC
modifications: 2'-F pyrimidines
Kd [7]: 851 pM

B9: Ev3.min24 (ssRNA)
RNA: GGGAGGAAGAGGGAUGGGCACGGUCCAGCGCACUGUACCUGCUGUGCCACCC
modifications: 2'-F pyrimidines
binding result [1]: binds

B10: FAM-C (ssRNA)
RNA: GGGAGAGAGGAAGAGGGAUGGGAAGAUCUGCUAAGUGCACGCACAAUCACCAUCGAGCGUCUCAUAACCCAGAGGUCGAUAGUACUGGAUCCCCCC
modifications: 2'-F pyrimidines
Kd [8]: 428 pM

B11: Bv1 (ssRNA)
RNA: GGAAGAGGGAUGGGUGCCAGCUUUGCAUACCACGUGCAAUUCACUCCACCCGUCAC
modifications: 2'-F pyrimidines
binding result [3]: binds

B12: Fv3 (ssRNA)
RNA: GGGAGAGAGGAAGAGGGAUGGGACCACGCGCCAACGUGUCAGCUACACGCCGUGUUCCCCGG
modifications: 2'-F pyrimidines
binding result [3]: binds
